From PMC3876041, “Screening of Peptide Ligands for Pyrroloquinoline Quinone Glucose Dehydrogenase Using Antagonistic Template-Based Biopanning” (International Journal of Molecular Sciences, 2013) come the findings set out here.

The nature of data set [1]: Substrate specificity of GDH-B mutants. Type of data set: biochemical. The following applies: galactose 20 mM; activity against glucose = 100%. The procedure:
Figure 3. Substrate specificity of wild-type GDH-B (W.T.), DEE-His, and HI against glucose, lactose, maltose, 3-O-methylglucose (3-O-m glucose), allose, galactose, or 2-deoxyglucose (2DG). Each substrate concentration was 20 mM. The enzymatic activity of each enzyme against glucose was set as 100%.
(§1) GDH-B activity was measured using 0.06 mM 2,6-dichlorophenolindophenol (DCIP) and 0.6 mM phenazine methosulfate (PMS) following 30 min pre-incubation in 10 mM MOPS–NaOH buffer (pH 7.0) containing 1 μM PQQ and 1 mM CaCl2 at room temperature (25 °C). The enzyme activity was determined by measuring the decrease in absorbance of DCIP at 600 nm. For the inhibition assay, the residual activity of 0.7 nM GDH-B for 50 mM D-glucose was measured following 1 h incubation with various concentrations of each peptide. GDH-B activity in the absence of peptide was defined as 100%.

A short description of data set [2]: Kinetic parameters of GDH-B and mutant enzymes. Format: biochemical. The procedure: as §1
Where [3] appears, read: DCIP/PMS assay, 10 mM MOPS–NaOH pH 7.0, 1 μM PQQ, 1 mM CaCl2, 25 °C.

B1: DEE-His: GDH-B mutant V453D-Q454E-K455E, 6-His tag fused to the C-terminal, antagonistic template (protein)
chain: DVPLTPSQFAKAKSENFDKKVILSNLNKPHALLWGPDNQIWLTERATGKILRVNPESGSVKTVFQVPEIVNDADGQNGLLGFAFHPDFKNNPYIYISGTFKNPKSTDKELPNQTIIRRYTYNKSTDTLEKPVDLLAGLPSSKDHQSGRLVIGPDQKIYYTIGDQGRNQLAYLFLPNQAQHTPTQQELNGKDYHTYMGKVLRLNLDGSIPKDNPSFNGVVSHIYTLGHRNPQGLAFTPNGKLLQSEQGPNSDDEINLIVKGGNYGWPNVAGYKDDSGYAYANYSAAANKSIKDLAQNGVKVAAGVPVTKESEWTGKNFVPPLKTLYTVQDTYNYNDPTCGEMTYICWPTVAPSSAYVYKGGKKAITGWENTLLVPSLKRGVIFRIKLDPTYSTTYDDAVPMFKSNNRYRDVIASPDGNVLYVLTDTAGNDEEDDGSVTNTLENPGSLIKFTYKAK
modifications: left off: His6, C-terminal, kept
notes: GDH-B mutant V453D-Q454E-K455E, 6-His tag fused to the C-terminal, antagonistic template
A word on the Km: it is the concentration of substrate that gives half-maximal velocity. Turning to B1, the “relative activity toward galactose (in words)” value in data set [1] is reported as “higher relative activity toward galactose”. Further, in data set [2] (setting [3]), the Km came to 91 mM and the Vmax turned out to be 28 U/mg protein. Further, the “Km compared to wild-type enzyme (in words)” value in data set [2] (compared to the wild-type enzyme) is reported as “increased Km value”. Also, the “GDH activity with PQQ (in words)” value in data set [2] (refolded DEE-His, with PQQ) is on record as “showed GDH activity with PQQ”.
